Assay results reported in IntAct's records for PubMed 19229292.

Tests used:
dlg3_rat Dlg3 = dlg3_rat Dlg3 (UniProt Q62936)
dlg1_rat Dlg1 = dlg1_rat Dlg1 (UniProt Q62696)
dlg2_rat Dlg2 = dlg2_rat Dlg2 (UniProt Q63622)

Measured: effect of a mutation on the interaction

Chain of dlg2_rat Dlg2 (Q63622 whole entry, looked up): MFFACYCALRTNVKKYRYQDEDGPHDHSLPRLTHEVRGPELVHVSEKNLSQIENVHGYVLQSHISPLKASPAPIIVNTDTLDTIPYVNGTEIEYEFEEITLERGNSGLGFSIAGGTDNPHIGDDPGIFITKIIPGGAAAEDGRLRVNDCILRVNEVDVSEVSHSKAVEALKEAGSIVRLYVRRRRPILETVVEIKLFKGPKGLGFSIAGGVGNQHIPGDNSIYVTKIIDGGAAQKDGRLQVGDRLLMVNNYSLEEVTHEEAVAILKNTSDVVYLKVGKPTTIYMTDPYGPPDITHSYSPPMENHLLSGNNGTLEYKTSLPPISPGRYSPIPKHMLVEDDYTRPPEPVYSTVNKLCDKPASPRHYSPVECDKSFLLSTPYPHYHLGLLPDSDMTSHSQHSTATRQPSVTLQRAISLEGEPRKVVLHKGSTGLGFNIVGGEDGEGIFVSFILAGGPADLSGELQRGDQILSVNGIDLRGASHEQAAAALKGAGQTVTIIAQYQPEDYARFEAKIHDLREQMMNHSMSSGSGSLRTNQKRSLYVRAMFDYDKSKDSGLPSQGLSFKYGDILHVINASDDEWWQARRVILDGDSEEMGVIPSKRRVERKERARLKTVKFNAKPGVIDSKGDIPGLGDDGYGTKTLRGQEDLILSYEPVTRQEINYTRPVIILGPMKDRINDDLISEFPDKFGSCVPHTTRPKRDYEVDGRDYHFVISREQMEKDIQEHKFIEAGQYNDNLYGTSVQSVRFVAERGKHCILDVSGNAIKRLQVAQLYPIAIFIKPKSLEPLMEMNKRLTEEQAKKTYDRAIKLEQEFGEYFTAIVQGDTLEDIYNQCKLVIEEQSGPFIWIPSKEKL
Chain of dlg3_rat Dlg3 (Q62936 whole entry): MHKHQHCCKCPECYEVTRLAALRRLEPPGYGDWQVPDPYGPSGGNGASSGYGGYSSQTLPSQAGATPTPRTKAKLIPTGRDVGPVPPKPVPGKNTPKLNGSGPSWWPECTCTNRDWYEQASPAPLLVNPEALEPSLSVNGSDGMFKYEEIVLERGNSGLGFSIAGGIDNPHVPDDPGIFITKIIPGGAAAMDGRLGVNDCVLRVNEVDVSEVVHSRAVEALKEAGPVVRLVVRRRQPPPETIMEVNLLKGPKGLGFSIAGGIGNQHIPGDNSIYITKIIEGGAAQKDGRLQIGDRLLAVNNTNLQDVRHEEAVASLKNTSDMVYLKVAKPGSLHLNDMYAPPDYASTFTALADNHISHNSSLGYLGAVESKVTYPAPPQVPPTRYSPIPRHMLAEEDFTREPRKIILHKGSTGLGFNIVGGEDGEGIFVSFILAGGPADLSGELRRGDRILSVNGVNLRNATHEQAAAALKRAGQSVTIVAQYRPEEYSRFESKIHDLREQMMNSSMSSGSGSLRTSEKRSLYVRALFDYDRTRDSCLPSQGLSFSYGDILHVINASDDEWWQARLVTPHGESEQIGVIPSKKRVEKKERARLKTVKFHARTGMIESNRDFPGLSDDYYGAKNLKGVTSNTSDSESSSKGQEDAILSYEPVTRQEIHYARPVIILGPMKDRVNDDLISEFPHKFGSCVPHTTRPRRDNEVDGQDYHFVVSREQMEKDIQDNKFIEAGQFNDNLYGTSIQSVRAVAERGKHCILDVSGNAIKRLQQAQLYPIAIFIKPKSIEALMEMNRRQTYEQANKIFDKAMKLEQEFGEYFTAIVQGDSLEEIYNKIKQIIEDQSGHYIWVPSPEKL
Chain of dlg1_rat Dlg1 (Q62696 whole entry): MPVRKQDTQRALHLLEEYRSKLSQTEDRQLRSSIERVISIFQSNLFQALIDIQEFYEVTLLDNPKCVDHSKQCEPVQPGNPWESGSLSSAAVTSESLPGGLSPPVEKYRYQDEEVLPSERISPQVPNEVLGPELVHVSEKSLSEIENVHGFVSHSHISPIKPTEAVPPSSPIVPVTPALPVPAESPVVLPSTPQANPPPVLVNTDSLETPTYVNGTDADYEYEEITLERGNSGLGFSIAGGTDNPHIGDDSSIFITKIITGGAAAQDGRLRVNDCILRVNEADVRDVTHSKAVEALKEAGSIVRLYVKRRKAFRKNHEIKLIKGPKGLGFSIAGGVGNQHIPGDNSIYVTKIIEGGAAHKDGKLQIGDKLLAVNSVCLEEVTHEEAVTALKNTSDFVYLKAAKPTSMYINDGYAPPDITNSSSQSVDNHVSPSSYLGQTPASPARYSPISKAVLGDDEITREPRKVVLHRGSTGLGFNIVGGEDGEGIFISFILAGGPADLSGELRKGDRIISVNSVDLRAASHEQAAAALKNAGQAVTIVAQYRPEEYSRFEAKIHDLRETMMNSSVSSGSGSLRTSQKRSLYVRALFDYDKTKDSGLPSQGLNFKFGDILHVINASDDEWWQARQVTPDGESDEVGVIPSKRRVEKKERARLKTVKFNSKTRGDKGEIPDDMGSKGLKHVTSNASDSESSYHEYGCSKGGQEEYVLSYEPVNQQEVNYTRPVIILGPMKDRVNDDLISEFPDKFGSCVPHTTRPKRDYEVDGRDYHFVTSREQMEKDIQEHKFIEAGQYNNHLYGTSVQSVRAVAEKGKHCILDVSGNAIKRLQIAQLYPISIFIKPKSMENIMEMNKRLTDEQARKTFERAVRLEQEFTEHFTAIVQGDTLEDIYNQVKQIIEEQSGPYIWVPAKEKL

Diacylglycerol kinase zeta (Rattus norvegicus (Rat)), O08560 V929A
disrupting interaction: all assays above
